Measured values taken from the DeepSol protein solubility set.

assay: soluble on expression in E. coli; label from the status in PepcDB or PDB records

Sequence	soluble on expression in E. coli
MGSDKIHHHHHHMFLQPLLAKKIIAEVKKMYEREVIIVNTDGLIMAGTNDERVGQFHEGALICAKERRSVIITKEDETRLKGVKAGINLPVFFDHDVISVFGLTGEPAEIQPFGELLRKMTELFIKESRHLEQSQWRERMLESFMIDWLQLKEWSPSFLEKAQLLGVDLSSRRQMILIQGYEWSPHDIEQMARSWKSSYPADLFIRWGNERILINHEVPQHEQRDRLLRKILHICSFANTASSQYTAAGAGRAVASSSLTDSYEQAEKALAVSLKRKTPIFEEDLKLDMCLTEISPGTRNEFPQRVLGKALEHQELMNTIRTFFHHDLSLKQTAEDMHIHINTLRYRLAKAEQLTGLRFDRTEDVVTMYVALYFLDQDTK	not soluble
MVLPALPAPPVCDSQNECVGWLGVAYSAVVDVIRAAAHEGVYIEPEARGRLDALREWIYYNYYTERAKRRDRRRRSVCHARTWFCFRKYDYVRRSIWHDTTTNTISVVSAHSVQ	soluble
MGSDKIHHHHHHLIPKIIHYCWFGNSELPDIVKDCISSWKKYCPEYEIKRWDESNYDVSKNAYTRAAYKNKKWAFLTDYVRLDVLYNEGGVYMDTDVKLIRSLDPLIDKGPFMSFEKRGRVNTGVGFACEAGNPIVKENKDYYENNLFVDENGNFEPEICVKITTKILIKHGLNYTENVVQKVDGLIVYSSDYFSPKKLGTEKITLTSNTYGIHLFASSWYKGSKIYKKMKYHLIPLKEFIKYKILSKKLYE	not soluble
MNAPPAWAADILKKASSQALDLYNKGIGGNVYQGERIAGLGTMTKNALTGLEQAVGQYNNPALTQWFNAPTQSAHNLLGMAKGDWIGNNSKFNAALQSALSKTSDAINQSMAGAGRYGSGAHTGVLADELGALATNAAAQQYNQDIHNMMNANQMIDRSLYDQVNAANNYYQGQSNAQSNALKGGLIQDVNRQNALDAERQKWTEQDNQAWNQLERLLRVGTQAAGNYGTTSGKSTTMPSVTKDPLRDAQQVLGLMGGILGLCDVRAKENIVPVGEKNGYPLYVFNYKGDPQRYCGVLAQEVLRLKPEAVFVNAKTKLLHVDYNKIGLKMKKISEPKKRIATFFSALFARFPFLQKGYLLLEHHHHHH	soluble
SRKMSLMRKEKLRGKAIKYVPASLLTKEFYSEAFTLNVDVIENIPKEFITAKMCEEAIQKNRHNIAYIPFEYRTEKIITEAIKNNGLALSEIDDTQKTEQLCLLAIRNHGGALQYVPYQLRTPEICLEAVKNFNGALNYVPEHIRTADFHTEYLIEDDWIDELLAGYDERLLKAVRKDARNLAAIPEEQRTYELCVEALLNNNDSDSVLKYVPDEFKTPEFYRNCVRINNKHFKDIPDSMKSYELCFEAVTNSPYALEYVPQRLLTKEIILAALSQKSMAVLDYVPPEFMTEEVYTTAFKNDIFGDIAYIFPEEYRTKENYLAMLGNPYSVCSTIIKTMPDYLKTDDFLVAAAKLRDEMLEYVPEYLLTQELCYELVKANGYALRITPPQFITEALCRTAVESDPRALCYVPEEFRTHEICDLALQKDMGLIKYAPADFAITADLCRRAVEADADAINQIPEQFRTEELWRIAVSEYGRLLEDLPASLMSEEFCRLAVANDGRALEFVPDKNKTKDVCFEAVRNSGHALKFVDVSKLTKEEYSKLCRLAFER	not soluble
MAHHHHHHMTSPALAPPQNTAEFWIKRLQLVPHPEGGYYSEVVRSAHKVDNEEGNRRHAYTTIYFLCTPESPSHLHRLCSDETWMYHAGDPLQLHVILKDPQDEDRIAAQPPAAPQAETDTADARPKYQVYRRVLVGARVERGELLQYTVPGGAIFGSSVAADGADGQAGYSLVSCIVSPGFDYRDFEIFTQAQLMELYPQHEAVIKQMAYETLPNHARLQTTEI	soluble
MSLQTAAAPTPAPVAAAPALPQGQVNIAVGSLKCKAEKCYGGLGEGIGDALTTALLNTGKFAVYERENTAQLTEEAFLNGGATFQGADVLIFGAITQYEPQASSGGLSFMGVSVGKKSSTIAMDLRIVDAKTRRIIGATQVQGKAEGNNFNVSGLLPVNVGAQSSPQLEAAISQMLNNAAQQLLLKVPASYYKEEGHHHHHH	soluble
MSKTRMEKLKTLKTIAETLNQGHDIKATLDEVLKELLSLTNLQSGWIFLIEEDGSYTLAADAYLPPALSRKEKVLMCEGECYCLTKFNNGGLRKAANIMNCKRIESAENLHCFDTEGITHHATVPLEDGDRRFGLLNVAAAGKTMFDEEELHLLESVAFQIGTAIQRMRLSEYQQK	not soluble
MQIPHGELRTLTYHSNALKSERQMYVWTPPGYSESSKPLPVLYFYHGFGDTGASAVVQGRIPQMMDNLLAEKKIEPMLVVIPDTETDVPGIIPEEYPPQERRKVFYPRNALAADRELIHDIIPAIGKRFNVRQDANGRALAGLSQGGYQALVSGMSHLDHFGWLATFSGVTTETVPNMAVAAQLERPEQINQQLKNLTVVIGETDNITGKDIAGLKTMLEQKNIRFDYTHYPNLGHEMDVWRPAYSEFVQKLFKLEHHHHHH	not soluble
MSLAFNVAFRLDAGAEIGLGHLMRCLAIADRLRAAGAECHFLCHDLPAHLLPLLHAHHHHSLTTQDDAGPLPSLQPDWLVFDHYQIDHVVEQELAVHCDQLLVIDDLADRPHYCQLLLDQGPLRTAADYQPLIPADCRLLLGTDYALLRPAYRQLARQQTSQWQGGLICFGGADPAGACLTTLNSLACLPWPRTIQWTLVAGGANPFWPELEQRVAELPELKITLLRQSDQMAQLMNQHDFTIGAAGGMTWERACLGLPTLAVPIVDNQEGHHHHHH	not soluble
MTNIEERINQIIQVLREQVVQDTAVPRNIRRAAEQAIEALQNKEKEPAVRAADAIAILEEISEDPNMPLHTRTIIWEVLGALEQIK	not soluble
MGSDKIHHHHHHMKKISYIFASILLTASLSGCNDFLDVTPSDQYSDASVFTSTEGAQQVLIGAYDWFTNGHYAHYTNQYIFFMPDVMADDAMVNSTGNYNRFVSPYQYSITPSSTYSVDPWIGCYSLIDNCNAILDNLETLPESSERNRIEGESLALRTYAYHYLIRMYAKPVNKYPDNPGVILRLTSSTTDIPRSTVKDCYVQMVNDIEKACTLLTGTSSSSKCYITEQAAHGIAARIYLDLGDYTNGTSHANKALSEITLMSKADYKNKFCENNTETIWYFTCTSTDKQSFLSLPAFWYYCDQDSTYVKDGYSSLGVAKELIDIFDDTDIRKTLFVKIDGKYYKRNGSYVTCKINSRKNDDSDGTKGSGTVAFAEGDYNMMRGSEMYLIIAELAADNNHEDEALAALNKVREARGISAYSGTGDVLKTEIQNERRRELFAEGHRLFDLKRRDLPMDRSNLTLDWSRVGLIPAGSDKLEMPIPQNEIDANGALTIADQNPAYK	not soluble
MKLPVMSPEHSAQLQAFEAKILSNHAKIEAWFRTQWSVHRPPFYGSVDIRNAGYKISSIDMNLFPGGFNNLNPNFIPLAAVAAQDAVQRACETAKSVLIIPENHTRNTFYLQNVYALGEILRSAGYEVRLGSLNPEVTEPTEFETALGDKILLEPLLRTRDRVHLADGFSPCVVLLNNDLSAGIPDILKGISQTVLPPLHGGWTTRRKTNHFGAYNQVTAEFAKLIGIDEWQINPYFEKIGGLDFQGREGEDALAEAVERVLAKIQAKYDESGITDKPFVIVKADAGTYGMGVMSVKSADEVRGLNRKNRNKMAKVKEGLEVSEVIVQEGIYTYETLNGAVCEPVVYMMDRFVIGGFFRVHEGRGADENLNAGGMVFVPLSNSIPTGNGDNSQEAPEACKRVFEQWDSLGMPRSEKDCDVDNEHNRLYVYGVMARLSLLAASIELEETA	soluble
MGSDKIHHHHHHMKKIAIFCHNFFSNGTVKIALSQAEVLQEAGQDVHLFVFHKEGDFMPPENVTIHYLYDAGQKPSLQEQRQHLKAKVAEAEQSGKFSLFLSNSTDCDVVVSGCDFEPCYYFCHCALKQELLMELKRGPVHFWRRWKKAKALIGKKIITVSNGIADELRATSWLKPQSVQTIYNPFRLEEIRKKTQEVIAEIPNVPYMIHVGRVTRQKRHDILFKALRDMPTAPKLVLLCNRPKKARKLAKKYGVEHRIITPGFQHNPYAWIAKAELMLLSSDFEGLPTVVIESLACGTPVVSTDCPHGPNEILTGHLAQYLVPVRQPALLAQKALECLASPPALDNLEILKAVDSQYIAAQYINLAQ	not soluble
MLHAETEVIVEDEPPILNLSRYRDEDRIQMDPFGDDEEEDDGFMDGQPPDLEMNLPSKQRRVRTRKPMDTDGSIDDGDKEKKAMKIINPAAATPSKMFRVQGERVISKALAERQYHVKLFEDEVEMTENGDCYATVISGCLAYLLRKERIIELLTNETEIAMMYGDKKKKYKKKISSKNKENCQNFKLLSEKSVRKKKQKSTVPIFSREGGWLLDKPPRLPPLVPHKACFAFYVDGSKIMSIKDVSNDDLKPWSSTGGEQHFNDPVIKPNVRRHPVARLNGRLQSVKGDPRIAELHLTEYSAWLPRLLRLRKKIFYLSRDGQIYGNVLILYDYTCPGEIPPIVNLPHGNDYLRHAMVDPTDPHVSLDLDDPGSTPFEDEIVEGPRGGMFLRVKLAKLGWAHNKKLLLRYLVNEPELLSQSNCLNRRTPYLPPLIPTTGVFVYFVPANFVANQINHTGDGLSPWTVNPASEGPSPRVRSTRRAIVQDDNGQFQMAKDTAGGWHSSQLCLVETMSVLARCPRLRKRLIYIQRNNTITIGNVCYIYEYVRDGPVPCPYVKPPGTPGRGVGGSKWIDDQKKIDTSQDPSTSSAAPNDEEQFIDVEDLEVVEEEVIGHHNDSLDQIQLQHDQHQQQQHQLMQDVSIAQDAQGHLLDDDLLDMSQEDVLNNGYDLEFDDDPLTQQENPAPYFENPRQLETGHIYLTVRHKRVASTFEAVLEWIANTNVVEERGLLNYAKPGHPPIVRNSRAYAFFVAGTAIFPHDINRDDFSPWSHNGNAQNPTCYRTKVRKVGVICDELGSQFQVLHGSQGKQPKKSDGNRRSPKIPKSAYFL	not soluble
MLIAQEQEQSSISLLAEVSRAVNNEEDISKVLRLVLFILSEHMNMLRGMVTILNRTTGEMVINESFGLTDEQRQLARYKVGEGIIGQVVKTGRPSVVPRINEEPLFLDRTQSRAEENKEELCFICVPIKVGREVIGTLSADRRISVPAENGDKKLWRKSDRIDVLQYYVDLLSIIAAMIAQAVRIKQLDDEKS	not soluble
MAHHHHHHMRGKGHKRLAARSFQQWQKLHYNALCDRQMPTPLHATLRLPVRRVAHQPSSCPSAPASVDMQLTTNSSAVLQWWQREYDPFLLGCDASAHRTAGPTPPATTATHVLASTRVSAHVGPPAPPLGYPDYIAIEATQHTEGVLRGETYAYHHAAAVGAVPAPPPGAAYPSPVKWIQQPLLDGFVAQRLTAHIGVTTGSLLDTRRTAMALGRQLPPVELSPFYAASALLDRWCLFGEAAAVVPSMPASSGATLDGTQQSQRPHDAAAHHLRIAELALGAGLLSNYRAVWLNGAVLSHPGTARSVLVVGPRRSGKTTLALHCLSAAAMQASSSASGDGGVRLTAAEHFFLAAGMPVRRMLDPASTRLTSPTIFACSLPHHITVGLGAVLGTLRPNPGLAAAVELPSFLQCEAGLRACLRNTDGVLWDMSKTYRVRLEDIYRASSPDISTQWAPVVVNTLAGVVLLDWNVEELASASPTPVRNAVREIPLHDGGVEELLKRAQDYMFHGHHLLRTVYDAPQDAPARLADALADEWDTAQPRSLANGTAPALHCIEGSVNFDLATQLIMSLLSERA	not soluble
QNLGAAVAILGGPGTVQGVVRFLQLTPERCLIEGTIDGLEPGLHGLHVHQYGDLTNNCNSCGNHFNPDGASHGGPQDSDRHRGDLGNVRADADGRAIFRMEDEQLKVWDVIGRSLIIDEGEDDLGRGGHPLSKITGNSGERLACGIIARSAGLF	soluble
